# Measurements: US20080070264A1, “Intracellular Signaling-Induced Ret-Independent Gdnf Receptor-Effected Morphological Changes” (JPMORGAN CHASE BANK N.A., priority 2003, published 2008)
# Entries after “also recorded” stand apart in the source; their conditions may differ.
# B1: GDNF: recombinant glial cell line-derived neurotrophic factor from Cephalon Inc. (baculovirus-infected insect cells) or R&D Systems, Inc. (mouse myeloma NSO) (protein, UniProt P39905 78-211, looked up)
# Glial cell line-derived …: SPDKQMAVLPRRERNRQAAAANPENSRGKGRRGQRGKNRGCVLTAIHLNVTDLGLGYETKEELIFRYCSGSCDAAETTYDKILKNLSRNRRLVSDKVGQACCRPIAFDDDLSFLDDNLVYHILRKHSAKRCGCI
# Columns and labels:
# [1] = biological target: T1, MET (Chlorocebus aethiops, UniProt Q2IBA6); assay: 125I-labelled GDNF and HGF binding, chemical crosslinking, anti-MET immunoprecipitation; conditions: RET/GFRα1-expressing MDCK cells; data not shown
# T1 construct: different combinations of the MET β-subunit (140 kDa), Met-αβ heterodimer (190 kDa) and HGF complexes; endogenous in cells; host or cells: COS7 cells (wild type for 125I-HGF; transfected with pc3-GFRα1/GFP for 125I-GDNF)
# Experimental: Binding of ^125I-GDNF to COS7 cells transfected with GFRα1, and ^125-HGF to wild-type COS7, followed by cross-linking with EDC together with sulfo-NHS. Inmunoprecipitates with anti-MET antibodies (IP-Met) were analysed by SDS-PAGE under reducing conditions. ^125I-HGF α subunit and proHGF are marked by arrows. ^125I-HGF/MET complexes are denoted by arrow heads. The results are representative of five independent experiments.
# GDNF and HGF were enzymatically iodinated with [^125I]NaI (Amersham Pharmacia Biotech) with lactoperoxidase to a specific activity of 100.000 cpm/ng as described (31). COS7 cells were transfected with pc3-GFRα1/GFP two days prior the assay. 2 nM of ^125I-GDNF or 1 nM of ^125I-HGF were allowed to bind to cell monolayers for 1-2 h on ice in binding buffer (DMEM/15 mM HEPES, pH 7.5; 0.2% BSA), washed, and chemically cross-linked for 30 min at room temperature using BS^3 ([Bis(sulfosuccinimidyl)suberate]), DSS ((Disulfosuccinimidyl)suberate), DSP (3,3-Dithio-bis-(sulfosuccinimidyl)propionate) or EDC ((1-Ethyl-3-[3-dimethylaminopropyl]carbodiimide Hydrochloride)) with sulfo-NHS (N-Hydroxysulfosuccinimide) (Pierce). The non-specific binding of GDNF was estimated by the amount of ^125I-GDNF binding to cells in the presence of 300 n M unlabeled GDNF. Cells were washed, lysed and immunoprecipitated with anti-MET antibodies as described. Gels were dried and analyzed by phosphorimaging in a BAS Reader 1800 (Fuji).
# [2] = tested on: mock-transfected MDCK cells; assay: Chemoattraction assay on collagen matrix with soaked agarose beads; assay type: cell-based, dog; conditions: beads soaked in GDNF 10 ng/μl; collagen I; 3 days
# Text: (§1) FIG. 3B: Chemoattraction assay on collagen matrix. Only RET/GFRα1-expressing cells migrate towards GDNF-soaked agarose beads. BSA-soaked agarose beads were used as negative controls. Agarose beads are denoted by white circles. Note that mock transfected, GFRα1-expressing and RET/GFRα1-expressing cells form clusters of adherent cells (denoted by arrowhead) with BSA-soaked beads after 3 days, whereas RET/GFRα1 cells migrating towards GDNF bead are dissociated.
# (§2) 3.5 cm dishes were coated with collagen I solution and 20,000 cells were seeded on the coated dish. GDNF-soaked agarose beads, prepared as described (Sainio et al., 1997), were put on the gel before it solidified. Cells around the beads were photographed daily.
# (§3) In another chemotaxis assay, RET/GFRα1-, GFRα1- and mock-transfected MDCK cells were seeded on culture dishes coated with collagen I. Agarose beads were soaked in GDNF (10 ng/μl) or 1% BSA. A bead was placed on top of the soft collagen, and cells were monitored for 3 days.
# [3] = tested on: RET/GFRα1-expressing MDCK cells; assay: as above; assay type: cell-based, dog; conditions: beads soaked in GDNF 10 ng/μl; collagen I; 3 days
# Text: as §1, §2, §3
# [4] = tested on: GFRα1-expressing, RET deficient MDCK cells; assay: as above; assay type: cell-based, dog; conditions: beads soaked in GDNF 10 ng/μl; collagen I; 3 days
# Text: as §1, §2, §3
# [5] = tested on: MET; assay: MET activation in GFRα1-transfected NIH 3T3 fibroblasts; assay type: cell-based
# [6] = tested on: MET; assay: MET phosphorylation in Neuro-2A neuroblastoma cells; assay type: cell-based
# [7] = tested on: Src-type kinases; assay: Src activation (Tyr418 phosphorylation) in MDCK cells; assay type: cell-based, dog; conditions: GFRα1-expressing and RET/GFRα1-expressing MDCK cells
# Experimental: FIG. 7A: Dose-dependent Src-kinase activation by GDNF in GFRα1-expressing and RET/GFRα1-expressing MDCK cells. The activation of Src-type kinases was observed after 15 minutes. The concentrations of GDNF are indicated. The numbers below the lane reflect the fold of increase in phosphorylation of Tyr418 of Src. The lower panels show the re-probing of the same filter with anti-Src antibodies. The results are representative of three independent experiments.
# To analyze Src activation, subconfluent GFRα1- and RET/GFRα1-expressing MDCK cell cultures were starved for 24 h before induction in serum-free MEM. After 10 min incubation at 37° C. with 50 ng/ml GDNF (Cephalon Inc. or R&D Systems, Inc.) or 50 ng/ml HGF (Sigma) cells were lysed in lysis buffer supplemented with 1 mM Na-orthovanadate and analyzed by Western blotting as described (Lindahl et al., 2001). The Western blots were probed with the indicated antibodies and developed with ECL reagents (Amersham Pharmacia Biotech). Antibodies used included anti-Y^418 Src and anti-Src (BioSource International).
# Possible candidates for messengers between GDNF-GFRα1 complex and MET are Src family kinases. […]
# [8] = tested on: ret −/−, ret +/− and ret +/+ kidney explants; assay: Ureteric branching in cultured E11 urogenital block explants; parameters: species or system mouse
# Experimental: FIG. 8A-FIG. 8D: Urogenital blocks including the Wolffian duct (wd), mesonephros (meso) and metanephros (meta) were dissected from E11 ret −/− (panels A, B), ret +/− (panel C) and ret +/+ (panel D) mouse embryos. The two urogenital blocks from the embryos were separately cultured for 4 days. One side was cultured without GDNF (panels A, C, D) and the other side with 50 ng/ml of GDNF (panel B). Urogenital block explants were fixed and immunostained with pan-cytokeratin antibodies. Scale bar: 200 μm.
# FIG. 8E: The number of ureteric branches of ret −/−, ret +/− and ret +/+ kidneys with or without GDNF supplementation. Numbers in parenthesis indicate the kidney explants counted. […] Each result represents the mean±SEM (n=5).
# To analyze the possible role of RET-independent, GFRα1-mediated signaling in ureteric budding and branching during nephrogenesis, the ability of exogenous GDNF to induce ureteric budding or sustain its branching in ret-deficient mice was tested. E11 ret −/− urogenital blocks including kidney rudiments were cultured for 4 days with or without 50 ng/ml of GDNF (FIG. 8). […] Thus, RET-independent signaling by GDNF has an apparent role in the ureteric branching, but may be less significant in the primary bud formation.
# T1 sequence (Q2IBA6 25-1381): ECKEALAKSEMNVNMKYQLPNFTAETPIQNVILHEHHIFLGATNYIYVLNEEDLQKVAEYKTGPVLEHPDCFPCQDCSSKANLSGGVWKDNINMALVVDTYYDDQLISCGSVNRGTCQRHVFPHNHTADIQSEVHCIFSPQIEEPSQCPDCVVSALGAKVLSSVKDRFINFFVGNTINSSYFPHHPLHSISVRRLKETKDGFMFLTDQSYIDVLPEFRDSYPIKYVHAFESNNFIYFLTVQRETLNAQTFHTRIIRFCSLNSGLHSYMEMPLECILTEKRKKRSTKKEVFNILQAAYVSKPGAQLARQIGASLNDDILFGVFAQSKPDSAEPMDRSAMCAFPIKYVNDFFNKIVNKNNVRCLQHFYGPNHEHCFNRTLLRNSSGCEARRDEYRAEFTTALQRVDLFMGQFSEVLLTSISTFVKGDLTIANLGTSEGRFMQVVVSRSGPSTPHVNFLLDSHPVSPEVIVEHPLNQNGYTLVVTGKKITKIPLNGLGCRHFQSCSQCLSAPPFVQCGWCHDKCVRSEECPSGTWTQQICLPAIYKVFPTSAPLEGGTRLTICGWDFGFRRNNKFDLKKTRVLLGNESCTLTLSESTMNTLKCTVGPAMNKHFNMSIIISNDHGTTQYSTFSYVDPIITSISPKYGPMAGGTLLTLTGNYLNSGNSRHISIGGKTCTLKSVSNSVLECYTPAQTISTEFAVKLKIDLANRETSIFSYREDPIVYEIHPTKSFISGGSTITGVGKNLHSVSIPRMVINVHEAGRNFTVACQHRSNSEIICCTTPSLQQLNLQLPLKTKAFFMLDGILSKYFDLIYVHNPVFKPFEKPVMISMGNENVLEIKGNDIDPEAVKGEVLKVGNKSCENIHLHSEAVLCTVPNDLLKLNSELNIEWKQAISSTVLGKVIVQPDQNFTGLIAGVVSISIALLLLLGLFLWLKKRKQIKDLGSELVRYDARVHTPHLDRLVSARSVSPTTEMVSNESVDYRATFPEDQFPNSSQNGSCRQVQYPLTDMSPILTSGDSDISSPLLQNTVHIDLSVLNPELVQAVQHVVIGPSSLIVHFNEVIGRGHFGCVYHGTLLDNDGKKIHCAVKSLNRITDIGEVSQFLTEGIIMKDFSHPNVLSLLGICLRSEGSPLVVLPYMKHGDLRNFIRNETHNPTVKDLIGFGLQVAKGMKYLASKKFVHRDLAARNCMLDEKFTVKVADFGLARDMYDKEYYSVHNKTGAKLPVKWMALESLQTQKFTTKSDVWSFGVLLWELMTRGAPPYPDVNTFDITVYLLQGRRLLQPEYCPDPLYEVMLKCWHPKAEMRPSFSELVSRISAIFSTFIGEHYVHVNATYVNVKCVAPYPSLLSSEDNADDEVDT
molecule,measurement,setting,value
B1,direct association of the GDNF receptor complex and MET,[1],no direct association
same,migration towards soaked agarose bead,[2],"Neither GFRα1-expressing, RET deficient cells nor mock-transfected cells, however, were attracted"
same,migration towards soaked agarose bead,[3],actively migrated towards the source of GDNF
same,migration towards soaked agarose bead,[4],"Neither GFRα1-expressing, RET deficient cells nor mock-transfected cells, however, were attracted"
same,MET activation,[5],takes place
same,MET phosphorylation,[6],induced MET phosphorylation
same,GDNF concentration that saturated Src phosphorylation,[7],0.1 pg/mL
same,time at which activation of Src-type kinases was observed,[7],15 min
same,number of ureteric bud tips,"[8]; ret +/− explants, GDNF 50 ng/ml, 4 days culture",increased the number of ureteric bud tips
same,number of ureteric bud tips / ureteric branching,"[8]; ret −/− explants, GDNF 50 ng/ml, 4 days culture",increased but not to the level seen in wild type kidneys; also recorded: significantly increased ureteric branching
same,number of urogenital explants completely lacking a ureteric bud,"[8]; ret −/− explants, with or without exogenous GDNF",remained the same
same,number of ureteric bud tips,"[8]; wild-type explants, GDNF 50 ng/ml, 4 days culture",increased the number of ureteric bud tips
